Measured values: patent US20170137511A1 (CALYPSO BIOTECH, published 2017)

T1: recombinant rat IL-15 (Sigma cat. no. SRP4172) (rat, UniProt P97604 49-162)
T1 sequence: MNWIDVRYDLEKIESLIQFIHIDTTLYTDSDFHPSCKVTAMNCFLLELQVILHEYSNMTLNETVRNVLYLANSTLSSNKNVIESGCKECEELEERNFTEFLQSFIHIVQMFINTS

T2: recombinant mouse IL-15 (R&D Systems cat. no. 447-ML) (mouse, UniProt P48346 49-162)
T2 sequence: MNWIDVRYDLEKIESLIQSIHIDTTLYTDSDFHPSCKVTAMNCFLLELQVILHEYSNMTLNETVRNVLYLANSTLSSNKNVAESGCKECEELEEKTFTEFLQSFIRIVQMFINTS


What was measured:
[1] = target: T3, recombinant human IL-15 (Prospec cat no. CYT230) (human, UniProt P40933 49-162); experiment: ELISA, plate-bound human IL-15; printed as BC50 (half-maximal binding concentration)
Procedure: (§1) Maxisorp plates were coated with recombinant human IL-15 (Prospec cat no. CYT230) or Rhesus macaque IL-15 (MyBiosource cat. no. MBS948894) at 100 ng/well in carbonate coating buffer for 2 hours at 37° C. Since published sequences of Rhesus macaque and Cynomolgus monkey IL-15 are identical, such recombinant IL-15 protein was referred to as Macaque Monkey IL-15. Tested human IL-15 recombinant protein has a sequence identical to that provided in SEQ ID NO: 1 but with an additional methionine at the N-terminal position as usually done for expressing recombinant proteins in E. Coli. Tested recombinant Macaque Monkey IL-15 was produced in yeast and has a sequence identical to that provided in SEQ ID NO: 4 but with an additional N-terminal His tag.
(§2) The plate was then blocked with 2% normal goat serum for 30 min at 37° C. and washed 6 times with PBS-Tween (0.05% Tween-20 in PBS, v/v). Test antibodies were added to the plate in triplicate at various dilutions in PBS-Tween and the plate was incubated with gentle rocking at room temperature for 2 hours. The plate was then washed 6 times with PBS-Tween and an appropriate dilution of goat anti-human IgG antibody (Millipore cat. no. AP309P) conjugated to horseradish peroxidase (HRP) was added to the plate and left rocking at room temperature for 1 hour. The plate was then washed 6 times with PBS-Tween and incubated with TMB substrate. The reaction was stopped by the addition of 1M H₂SO₄ and read at 450 nm. Dose response curves of absorbance versus concentration were plotted and analyzed to determine half-maximal binding concentrations (BC₅₀) using the Graphpad Prism software. BC₅₀ values expressed as molarity were extrapolated from concentration in ng/ml using a 150 kDa molecular weight value for all antibodies.

[2] = target: T4, recombinant Macaque Monkey IL-15 (MyBiosource cat. no. MBS948894) (Rhesus macaque / Cynomolgus monkey, UniProt P40221 49-162 (Chlorocebus aethiops entry)); experiment: ELISA, plate-bound Macaque Monkey IL-15; printed as BC50 (half-maximal binding concentration)
T4 construct: Produced in yeast; also called Rhesus macaque IL-15; recombinant monkey IL-15; not shown: additional N-terminal His tag
Procedure: as §1, §2

[3] = target: T3, recombinant human IL-15 (Prospec cat …); experiment: ELISA, plate-bound recombinant human IL-15 (100 ng/well), HRP goat anti-human IgG, absorbance at 450 nm
Procedure: as §1
The plate was then blocked with 2% normal goat serum for 30 min at 37° C. and washed 6 times with PBS-Tween (0.05% Tween-20 in PBS, v/v). […] The reaction was stopped by the addition of 1M H₂SO₄ and read at 450 nm. Dose response curves of absorbance versus concentration were plotted and analyzed to determine half-maximal binding concentrations (BC₅₀) using the Graphpad Prism software. BC₅₀ values expressed as molarity were extrapolated from concentration in ng/ml using a 150 kDa molecular weight value for all antibodies.

[4] = target: recombinant human IL-2 (R&D Systems cat. no. 202-IL-010) (human, UniProt P60568 21-153); experiment: ELISA, plate-bound recombinant human IL-2 (100 ng/well), HRP goat anti-human IgG, absorbance at 450 nm
Procedure: Maxisorp plates were coated with recombinant human IL-2 (R&D Systems cat. no. 202-IL-010) of SEQ ID NO: 38 at 100 ng/well in carbonate coating buffer for 2 hours at 37° C. The plate was then blocked with 2% normal goat serum for 30 min at 37° C. and washed 4 times with PBS-Tween (0.05% Tween-20 in PBS, v/v). Test antibodies or positive control biotinylated antibody (anti-IL-2 Novus Bio cat. no. NBP1-43491) were added to the plate in duplicate at 5 μg/ml in PBS-Tween and the plate was incubated with gentle rocking at room temperature for 2 hours. The plate was then washed 4 times with PBS-Tween and an appropriate dilution of goat anti-human IgG antibody (Millipore cat. no. AP309P) conjugated to horseradish peroxidase (HRP) for test antibodies, or streptavidin-HRP for positive control antibody, was added to the plate and left rocking at room temperature for 1 hour. The plate was then washed 4 times with PBS-Tween and incubated with TMB (3,3′,5,5′-tetramethylbenzidine) substrate. The reaction was stopped by the addition of 1 M H₂SO₄ and read at 450 nm.

[5] = target: T4, recombinant Macaque Monkey IL-15 …; experiment: cell-based or functional assay
[6] = target: T5, recombinant human IL-15 (R&D systems cat. no. 247-IL) (human, UniProt P40933 49-162); experiment: cell-based or functional assay
[7] = target: T5, recombinant human IL-15 (R&D systems …); experiment: cell-based or functional assay; remark: listed apart in the source
[8] = target: T3, recombinant human IL-15 (Prospec cat …); experiment: SPR (Biacore 3000), human IL-15 amine-coupled to the chip, antibody injected, 1:1 Langmuir fit
Procedure: Human IL-15 (Prospec cat no. CYT230) was immobilized onto a CMS chip (GE Healthcare) using standard amine coupling, and antibodies injected at various concentrations in 120 μl phosphate buffer saline with a flow rate of […]. Binding kinetics were analyzed on a Biacore 3000 apparatus (GE Healthcare) with a 300 seconds dissociation period. Reference signal and 0 nM antibody concentration signal were substracted and data fitted using a 1:1 (Langmuir) binding model.

[9] = target: T1, recombinant rat IL-15 (Sigma cat. no. …); experiment: ELISA, plate-bound recombinant rat IL-15 (100 ng/well), HRP goat anti-human IgG, absorbance at 450 nm
Procedure: (§3) Maxisorp plates were coated with recombinant mouse IL-15 (R&D Systems cat. no. 447-ML) or rat IL-15 (Sigma cat. no. SRP4172) at 100 ng/well in carbonate coating buffer for 2 hours at 37° C. Tested IL-15 recombinant proteins have a sequence identical to that provided in SEQ ID NO: 2 (mouse IL-15) and SEQ ID NO: 3 (rat IL-15) but with an additional methionine at the N-terminal position as usually done for expressing recombinant proteins in E. Coli.
(§4) The plate was then blocked with 2% normal goat serum for 30 min at 37° C. and washed 6 times with PBS-Tween (0.05% Tween-20 in PBS, v/v). Test antibodies were added to the plate in triplicate at various dilutions in PBS-Tween and the plate was incubated with gentle rocking at room temperature for 2 hours. As positive controls, rabbit-anti-mouse IL-15 (Acris cat. no. AP01124PU-S) or rabbit anti-rat IL-15 (Biovision cat. no. 5172) antibodies were tested at the same concentrations. The plate was then washed 6 times with PBS-Tween and an appropriate dilution of HRP-conjugated goat anti-human IgG antibody (Millipore cat. no. AP309P) for humanized antibodies, or goat-anti-rabbit IgG antibody (Sigma cat. no. A 4416) for the positive controls was added and the plate was left rocking at room temperature for 1 hour. The plate was then washed 6 times with PBS-Tween and incubated with TMB substrate. The reaction was stopped by the addition of 1M H₂SO₄ and read at 450 nm. Dose response curves of absorbance versus concentration were plotted using the Graphpad Prism software.

[10] = target: T2, recombinant mouse IL-15 (R&D Systems …); experiment: ELISA, plate-bound recombinant mouse IL-15 (100 ng/well), HRP goat anti-human IgG, absorbance at 450 nm
Procedure: as §3, §4

T5 sequence (P40933 49-162 limits assumed): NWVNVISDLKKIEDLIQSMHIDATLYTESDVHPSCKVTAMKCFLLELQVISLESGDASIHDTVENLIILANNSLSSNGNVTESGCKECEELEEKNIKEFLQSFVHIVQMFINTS
T3 sequence (P40933 other isoform, or with tags, fused parts or gaps): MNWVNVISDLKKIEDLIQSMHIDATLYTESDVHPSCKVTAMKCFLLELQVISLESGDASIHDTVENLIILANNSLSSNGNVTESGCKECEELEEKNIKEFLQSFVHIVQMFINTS
T4 sequence (P40221 49-162): as the sequence (P40933 49-162 limits assumed) above, with L52H, A57T, S58D, S73I, V80I counted along it
Chain of recombinant human IL-2 (R&D Systems cat. no. 202-IL-010) (P60568 21-153 limits assumed): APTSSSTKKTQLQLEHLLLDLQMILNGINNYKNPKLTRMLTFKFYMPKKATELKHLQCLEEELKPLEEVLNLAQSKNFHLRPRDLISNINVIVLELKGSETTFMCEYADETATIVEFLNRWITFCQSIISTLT

| EC50 [1] [nM] | EC50 [2] [nM] | EC50 (read off the curve) [3] [ng/mL] | binding result [4] | IC50 in Kit 225 cells (nM), Macaque Monkey IL-15 [5] [nM] | IC50 in M-07e cells (nM), Macaque Monkey IL-15 [5] [nM] | IC50 in Kit 225 cells (nM), Human IL-15 [6] [nM] | IC50 in M-07e cells (nM), Human IL-15 [6] [nM] | IC50 in M07e cells for IL-15 trans presentation [7] [nM] | Kd [8] [nM] | koff [8] [s⁻¹] | kon [8] [M⁻¹ s⁻¹] | Binder | binding result [9] | binding result [10] |
| --- | --- | --- | --- | --- | --- | --- | --- | --- | --- | --- | --- | --- | --- | --- |
| 1.33 | 0.487 | ~200 |  |  |  |  |  |  |  |  |  | huB-E29-1 (antibody, human IgG1, kappa, Humanized B-E29 variant; human IgG1 (G1m3) / kappa (Km3), produced in CHO cells; also called huVH1/huVL1; hVH1:hVK1) heavy: not shown light: DVVMTQSPLSLPVTLGQPASISCRSSQSIVDITGNTYLEWYQQRPGQSPRLLIYKVFNRFSGVPDRFSGSGSGTDFTLKISRVEAEDVGVYYCFQDSFVPYTFGQGTKLEIKRTVAAPSVFIFPPSDEQLKSGTASVVCLLNNFYPREAKVQWKVDNALQSGNSQESVTEQDSKDSTYSLSSTLTLSKADYEKHKVYACEVTHQGLSSPVTKSFNRGEC |  |  |
| 1.01 | 0.5 |  | no binding (tested: 5 µg/ml) |  |  |  |  |  |  |  |  | huB-E29-4 (antibody, human IgG1, kappa, V domains shown, Humanized B-E29 variant; human IgG1 (G1m3) / kappa (Km3), produced in CHO cells; also called huVH1/huVL2) VH: EVRLMASGGGLVQPGGSLRLSCAASEFTFSNYAMSWVRQAPGKGLEWVATISRGGDYTYYPDSVKGRFTISRDNSKNTLYLQMNSLRAEDTAVYYCARRVSMITGGWAMDYWGQGTLVTVSS VL: DVVMTQSPLSLPVTLGQPASISCRSSQSIVDITGNTYLEWFQQRPGQSPRLLIYKVFNRFSGVPDRFSGSGSGTDFTLKISRVEAEDVGVYYCFQDSFVPYTFGQGTKLEIKR |  |  |
| 0.507 | 0.353 |  | no binding (tested: 5 µg/ml) | 17.5 | 41.3 | 17 | 4.2 | 0.53 | 0.295 | 0.000423 | 1.43e+06 | huB-E29-10 (antibody, human IgG1, kappa, V domains shown, Humanized B-E29 variant; human IgG1 (G1m3) / kappa (Km3), produced in CHO cells; also called huVH8/huVL1) VH: EVRLMASGGGLVQPGGSLRLSCAASEFTFSNYAMSWVRQAPGKGLEWVATISRGGDYTYYPDTVKGRFTISRDNSKNTLYLQMNSLRAEDTAVYYCARRVSMITGGYAMDYWGQGTLVTVSS VL: DVVMTQSPLSLPVTLGQPASISCRSSQSIVDITGNTYLEWYQQRPGQSPRLLIYKVFNRFSGVPDRFSGSGSGTDFTLKISRVEAEDVGVYYCFQDSFVPYTFGQGTKLEIKR | no binding (tested: log 3.7 (about 5000 ng/mL)) | no binding (tested: log 3.7 (about 5000 ng/mL)) |
| 0.693 | 0.367 |  |  |  |  |  |  |  |  |  |  | huB-E29-18 (antibody, human IgG1, kappa, V domains shown, Humanized B-E29 variant; human IgG1 (G1m3) / kappa (Km3), produced in CHO cells; also called huVH1/huVL4) VH: EVRLMASGGGLVQPGGSLRLSCAASEFTFSNYAMSWVRQAPGKGLEWVATISRGGDYTYYPDSVKGRFTISRDNSKNTLYLQMNSLRAEDTAVYYCARRVSMITGGWAMDYWGQGTLVTVSS VL: DVVMTQSPLSLPVTLGQPASISCRSSQSIVDITGNTYLEWYQQRPGQSPRLLIYKVFNRFSGVPDRFSGSGSGTDFTLKISRVEAEDVGVYYCFQESFVPYTFGQGTKLEIKR |  |  |
